The record followed here is patent US10538583 (dated 2020).

Assay [1] has as its target human ApoC3 (human). As to the kind of experiment: SPR pH 7.4.
Assay [2] has as its target human ApoC3 (human). Briefly: SPR pH 5.5.
Assay [3] has as its target human ApoC3 (human). As to the kind of experiment: SPR pH 5.5. This is another data set of the same source.
Assay [4] deals with human ApoC3 (human). As to the kind of experiment: SPR pH 7.4. The source holds these as a separate data set.

Residue numbers refer to the chain shown, from its start.

human ApoC3 (human), sequence (chain, as listed by the source): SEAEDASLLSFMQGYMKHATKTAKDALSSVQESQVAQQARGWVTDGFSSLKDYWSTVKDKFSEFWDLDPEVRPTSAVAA

B1: 5E5VH5VH12_VL8 IgG1 (antibody, V domains shown)
VH: QLQLVESGGGLVQPGGSLRLSCAASGFTFGTYSMRWVRQVPRKALEWVSSIHTDGGGTAYRDSVKGRFTISRDNAKNTLYLQMNNLKPEDTAIYYCVIHGYSDWGQGTQVTVSS
VL: ATMLTQSPGSLSVVPGESASISCKTSQGLVHSDGKTYFYWFLQKPGQSPQQLIYQVSNRASGVPDRFTGSGSGTDFTLKISGVKAEDAGVYYCAHGTYYPHTFGSGTRLEIK
B1: binding with human ApoC3 [1] was characterised by a dissociation constant (Kd) of 22.4 nM. For the same molecule, the binding result in the assay with human ApoC3 [2] was “no binding”.

B2: 5E5VH12_VLWT scFv-Fc (antibody, V domains shown)
VH: B1 VH with H52S
VL: B1 VL with H95Q
For B2, the Kd (in general, the free concentration of one partner at which half of the binding sites on the other are occupied at equilibrium, for simple one-to-one binding) with human ApoC3 [3] stood at 16 nM; with human ApoC3 [4] it was 0.51 nM.
